“Also recorded” adds a separate entry of the source.
How the values were obtained:
[1] = tested on: tumors from Prkci^fl/fl Prkcz^fl/fl Villin-cre (DKO) mice; experiment: scRNAseq and IHC of DKO mouse intestinal tumors treated with PVHA or Galunisertib; type: in vivo
Procedure: FIG. 3A illustrates the experimental design: Prkci^fl/flPrkcz^fl/fl (DKO) mice were treated either with PVHA (0.0375 mg/Kg twice per week) or Galunisertib (10 mg twice daily) as described. Intestinal tumors were analyzed by scRNAseq.
To identify the mechanism of action of PVHA in the treatment of CMS4 tumors, scRNAseq was performed using 10× Genomics Chromium platform on tumors from Prkci^fl/fl Prkcz^fl/fl Villin-cre (DKO) mice (n=5) treated with PVHA for 14 weeks (n=3), as compared to those treated with Galunisertib (GAL) for 17 weeks (n=3), as shown in experimental design (FIG. 3A). Unsupervised clustering identified tumor and normal epithelial cells as well as stromal and immune cells with selective markers for each population (FIGS. 3B-3C). […] Among tumor clusters (0,4,6), a cell population with transcriptomic similarities to the recently identified “revival stem cells” (RSC; high Clu) in the vehicle treated tumors was identified (FIGS. 3F-3G).

[2] = tested on: Prkci^fl/flPrkcz^fl/fl; Villin-Cre tumors; experiment: scRNAseq, CellphoneDB and multiplex staining of Prkci^fl/flPrkcz^fl/fl; Villin-Cre tumors treated with PEGPH20; type: in vivo, mouse
Description: FIG. 10A illustrates experimental design and workflow of scRNAseq. Tumors from Veh (n=5) and PEGPH20-treated mice (n=3) were dissected and digested into single-cell suspensions for sequencing.
Primary antibody dilutions were optimized individually at H220 retrieval using the Leica BondRx Automated IHC stainer and evaluated by a board-certified pathologist for specificity. Multiplexed staining was optimized and then performed using the Automated Opal 7-Color IHC Kit (NEL821001KT) from Akoya Biosciences. A library for spectral separation was generated by staining control tissue with each opal fluor conjugated to CD20. Slides were imaged in the Vectra Polaris Automated Quantitative Pathology Multispectral Imaging System. Exposure times were maximized under the constraint that no pixel saturates the detector (Patel and Rodig, 2020; Patel et al., 2019).
Tumors were minced thoroughly and digested by 0.5 mg/ml Liberase TH (Sigma) for 30 minutes at 37° C. Dead cells were removed by Annexin V (STEMCELL technologies). scRNAseq libraries were generated using the Chromium Single Cell 30 Reagent Kit v2 (10× Genomics). Cells were loaded onto the 10× Chromium Single Cell Platform (10× Genomics) at a concentration of 2,000 cells per μl (Single Cell 3′ library and Gel Bead Kit v.2) as described in the manufacturer's protocol (10× User Guide, Revision B). Generation of gel beads in emulsion (GEMs), barcoding, GEM-RT clean-up, complementary DNA amplification and library construction were all performed as per the manufacturer's protocol. Individual sample quality was checked using a Bioanalyzer Tapestation (Agilent). Qubit was used for library quantification before pooling. The final library pool was sequenced on an Illumina NovaSeq6000 instrument using a S1 flow cell. Average cell recovery for Prkci^f/fPrkcz^f/f; Villin-Cre tumors was […] with a total of 209,907 cells captured at a mean depth of 14,568 read per cell and 895 mean genes per cell.
For scRNA-seq, raw sequence reads were quality-checked using FastQC software. The Cell Ranger version 2.1.1 software suite from 10× Genomics (https://support.10× genomics.com/single-cell-gene-expression/software/downloads/latest) was used to process, align, and summarize unique molecular identifier (UMI) counts against the mouse mm10 assembly reference genome analysis set, obtained from the University of California Santa Cruz (UCSC). Raw, unfiltered count matrices were imported into R for further processing. Raw UMI count matrices were filtered using the Seurat v 3.0 R package (Butler et al., 2018) to remove: barcodes with very low (less than 200, empty wells) and very high (more than 3000, probably doublets) total UMI counts; matrices for which a high percentage of UMIs originated from mitochondrial features (more than 12%); and matrices for which fewer than 250 genes were expressed. Subsequently, the data were normalized using the SCTransform function, regressing out the following variables: total number of UMIs per cell and percentage of mitochondrial UMIs. Following normalization, the principal components were computed. The top principal components were identified using the ElbowPlot function and used for the UMAP dimensionality reduction. For clustering, Seurat was used in combination with Harmony software (Korsunsky et al., 2019) to correct the potential effects of technical differences between sequencing batches. The RunHarmonyo, RunUMAP( ), FindNeighbors( ), and FindClusters( ) functions were run for clustering and the percentage of mitochondrial features was considered to be a source of unwanted variation and was regressed out using the Seurat package. […] For the differential gene expression analysis, the FindMarker( ) function with default parameters was run for comparison between populations. The cell groups were annotated based on the marker gene analysis and canonical markers from the literature. […]

[3] = tested on: tumors from Prkci^fl/fl Prkcz^fl/fl Villin-cre (DKO) mice; experiment: scRNAseq and IHC of DKO mouse intestinal tumors treated with PVHA or Galunisertib; type: in vivo; details: non-tumor area
[4] = scRNAseq tumor epithelial cells

B1: PEGPH20: a PEGylated version of human recombinant PH20 hyaluronidase; clinical-grade pegylated hyaluronidase (Halozyme Therapeutics) (protein, UniProt P38567 36-490, looked up)
Hyaluronidase PH-20: LNFRAPPVIPNVPFLWAWNAPSEFCLGKFDEPLDMSLFSFIGSPRINATGQGVTIFYVDRLGYYPYIDSITGVTVNGGIPQKISLQDHLDKAKKDITFYMPVDNLGMAVIDWEEWRPTWARNWKPKDVYKNRSIELVQQQNVQLSLTEATEKAKQEFEKAGKDFLVETIKLGKLLRPNHLWGYYLFPDCYNHHYKKPGYNGSCFNVEIKRNDDLSWLWNESTALYPSIYLNTQQSPVAATLYVRNRVREAIRVSKIPDAKSPLPVFAYTRIVFTDQVLKFLSQDELVYTFGETVALGASGIVIWGTLSIMRSMKSCLLLDNYMETILNPYIINVTLAAKMCSQVLCQEQGVCIRKNWNSSDYLHLNPDNFAIQLEKGGKFTVRGKPTLEDLEQFSEKFYCSCYSTLSCKEKADVKDTDAVDVCIADGVCIDAFLKPPMETEEPQIFYNASPSTLS
modifications: PEGylated
numbers of inferred interactions of tumor epithelial cells with immune cells ([1]; CellphoneDB, as compared to GAL treatment): higher | Cd81+Pdgfra− fibroblast around the Crypt, IHC ([1]; DKO intestine): induction | Trophocyte-like fibroblast cluster (Cd34, Cd81) ([1]; scRNAseq): strongly increased | Cd8 T cells, cell type proportion ([1]; scRNAseq T cells): increase | proportion of Treg ([1]; scRNAseq T cells): reduce | fibroblast clusters associated with human CRC (Grem1/Sfrp1, Igf1/Cxcl14), CMS4 subtype (Sfrp2) and tumor initiation (Ptgs2/Spp1) ([1]; scRNAseq cell-type proportion): complete elimination | tumor cells, cell percentage analysis ([1]; scRNAseq epithelial cells, compared to vehicle or GAL-treated): clear reduction | tumoral goblet population ([1]; scRNAseq goblet cells): reduction | T cells, cell-type proportion ([1]; scRNAseq immune cells): increase | myeloid cells, cell-type proportion ([1]; scRNAseq immune cells): decrease | TAN1 (anti-tumoral neutrophils) ([1]; scRNAseq myeloid cells): increased | TAN2 (pro-tumoral neutrophils) ([1]; scRNAseq myeloid cells): reduced | proportion of dendritic cells ([1]; scRNAseq myeloid cells): increased | percentage of stromal and immune cells ([1]; scRNAseq, PVHA 0.0375 mg/Kg twice per week, 14 weeks, Galunisertib 10 mg twice daily, 17 weeks): decreased | mature goblets proportion ([1]; scRNAseq, as compared to GAL): increased | Lgr5 Stem Cells population ([1]; scRNAseq, population lost in the DKO intestine): recovered | number of stromal cells ([1]; scRNAseq, without apparent changes in cell-type proportions): reduced | Clu IHC ([1]; tumor area): decrease | immature goblets, IHC double staining for Alcian blue and Lyz1 ([1]; tumor area): reduction | TGFβ signals provided by myeloid cells and CD4+ Tregs ([2]; CellphoneDB): reduced | communications between TRSC and trophocytes ([2]; CellphoneDB): induced a high number | interaction between Spp1-Ptger4/Cd44 in fibroblasts and Spp1 interactions between telocytes and CD4+ Tregs ([2]; CellphoneDB): eliminates | interactions between TFSCs and telocytes ([2]; CellphoneDB): switching off | secretion of Ccl27a in TRSCs, Ccl28 in TcTAs and residual TFSCs, Ccl25 in TcTAs and TFSCs ([2]; CellphoneDB): increased | secretion of growth signals from telocytes to myeloid cells and CD4+ Tregs ([2]; CellphoneDB): repressed | Rspo1/3 in trophocytes ([2]; CellphoneDB, interact with Lgr5 in TRSC): enriched | presence of TFSCs (ANXA10+ staining) ([2]; IHC): strongly reduced | presence of TRSCs (CLU+ staining) ([2]; IHC): not reduced | ANXA10+/Alcian Blue and ANXA10+/MUC2+ TGCs ([2]; IHC and multiplex imaging): reduced | flow from TcTA to TFSC ([2]; RNA velocity trajectory analysis): total disruption | myeloid cells and CD4+ Tregs in tumors ([2]; VECTRA multiplex imaging): concomitant reduction | B, plasma, and CD8+ T cells infiltrating the tumors ([2]; VECTRA multiplex imaging, CD138 staining): allows CD8+ T cell infiltration; also recorded: strong recruitment | collagens, matrix metalloproteinases, and signatures related to matrix remodeling in the intermediate fibroblasts ([2]; differential gene expression): substantial reduction | vessel normalization signature ([2]; endothelial compartment): increased | angiogenesis, glycolysis, and hypoxia signatures ([2]; endothelium compartment): reduced | signatures related to interferon activation ([2]; endothelium compartment): increased | trophocyte levels (PDGRA−/CD31−/CD34+) ([2]; immunofluorescence, mainly at the crypt-bottom positions): strongly increased | PDGFRA+/NRG1+ fibroblasts at the luminal border ([2]; multiplex immunofluorescence): significantly reduced | expression of several ICIs, including Ctla4, in CD4+ Tregs ([2]; scRNAseq): higher expression | Cd47 immune checkpoint inhibitor expression ([2]; scRNAseq / CellphoneDB): clear increase | signatures corresponding to CD8+ T cells exhaustion, stem-like, and expansion ([2]; scRNAseq CD8+ T cells): enrichment | CD4+ Treg cells ([2]; scRNAseq T cells): reduced | CD8+/Treg ratio ([2]; scRNAseq T cells): increased | proportion of CD8+ Trm and CD8+ Tex cells ([2]; scRNAseq T cells): increased | proportion of tip cells and postcapillary and immature endothelial cells ([2]; scRNAseq endothelial compartment): reduced | proportion of intermediate fibroblast ([2]; scRNAseq fibroblasts): not affected | trophocytes ([2]; scRNAseq fibroblasts): concomitant accumulation | telocyte population ([2]; scRNAseq fibroblasts, HA degradation in vivo): virtually eliminated | proportion of TGCs ([2]; scRNAseq goblet cells): strongly reduced | levels of myeloid cell types (TAN, TAM, IM) ([2]; scRNAseq immune cells): reduced | proportion of T and B cells ([2]; scRNAseq immune cells): increased | proportion of TFSCs [2, 4]: clear reduction | proportion of TRSCs in the persistent tumor cell population [2, 4]: relative enrichment | proportion of TcTAs [2, 4]: limited proportional reduction | vessel disorganization signature ([2]; whole endothelial compartment): reversed | Olfm4 (Stem cell marker) IHC [3]: increase

Reference: patent US20240377400A1, “METHODS FOR TREATING A SUBTYPE OF COLORECTAL CANCER” (Cornell University, priority 2021, published 2024)
